Data: paper PMC4020580

Target: bovine trypsin (bovine)

stoichiometry of inhibition (SI) of bovine trypsin	Substance
1.1	labeled single-Cys S313C α1AT (natural protein)
1.1	labeled single-Cys S47C α1AT (natural protein)
1.1	α1AT Ser313Cys double-Cys variant (2Cys313), unlabeled (natural protein)
